Laboratory results from PMC8835902, “DNA Polymerase-Parental DNA Interaction Is Essential for Helicase-Polymerase Coupling during Bacteriophage T7 DNA Replication”.

Experiments:
[1] = molecular target: WTgp5 (T7 DNA polymerase, exo-);thioredoxin (trx) (bacteriophage T7;Escherichia coli?, UniProt P00581;P0AA25 1-704;1-109, D5A;E7A|); test: EMSA; 20 mM Hepes pH 7.5, 1 mM EDTA, 100 mM KCl, 0.1 mM bME, 5% glycerol, 0.10 mg/mL BSA, 10 nM DNA, 25 C (30 min; 15 min + 15 min for supershift); conditions: protein: recombinant;recombinant, tags: ;, copies: 1;1, label: 5' Cy5 on primer
[2] = molecular target: T1, WAgp5;thioredoxin (trx) (bacteriophage T7;Escherichia coli?, UniProt P00581;P0AA25 1-704;1-109, D5A;E7A;W579A|); test: EMSA; similar to WTgp5; 20 mM Hepes pH 7.5, 1 mM EDTA, 100 mM KCl, 0.1 mM bME, 5% glycerol, 0.10 mg/mL BSA, 10 nM DNA, 25 C (30 min; 15 min + 15 min for supershift); conditions: protein: recombinant;recombinant; tags: ;; copies: 1;1; label: 5' Cy5 on primer; primer-template, 26 bp duplex, 32 nt 5' template overhang
[3] = molecular target: EQgp4 (T7 helicase) (bacteriophage T7, UniProt P03692 1-566, E343Q); test: EMSA; dTTP; 20 mM Hepes pH 7.5, 1 mM EDTA, 100 mM KCl, 0.1 mM bME, 5% glycerol, 0.10 mg/mL BSA, 10 nM DNA, 25 C (30 min; 15 min + 15 min for supershift); conditions: protein: recombinant; tags: His tag removed (PreScission); chain copies: 6; label: 5' Cy5 on primer; fork 1:2 2:3, 2 nt ssDNA gap between primer end and fork
[4] = molecular target: EQgp4deltaC (bacteriophage T7, UniProt P03692 1-549, E343Q); test: EMSA; 20 mM Hepes pH 7.5, 1 mM EDTA, 100 mM KCl, 0.1 mM bME, 5% glycerol, 0.10 mg/mL BSA, 10 nM DNA, 25 C (30 min; 15 min + 15 min for supershift); conditions: protein: recombinant; tags: His tag removed (PreScission); chain copies: 6; label: 5' Cy5 on primer; fork 1:2 2:3, 2 nt ssDNA gap between primer end and fork
[5] = molecular target: EQgp4 (T7 helicase);K3Dgp5;thioredoxin (trx) (bacteriophage T7;bacteriophage …, UniProt P03692;P00581;P0AA25 1-566;1-704;1-109, E343Q|D5A;E7A;K545D;K549D;K553D|); test: EMSA; K3Dgp5-trx stimulates EQgp4 binding; 20 mM Hepes pH 7.5, 1 mM EDTA, 100 mM KCl, 0.1 mM bME, 5% glycerol, 0.10 mg/mL BSA, 10 nM DNA, 25 C (30 min; 15 min + 15 min for supershift); conditions: protein: recombinant;recombinant;recombinant; tags: His tag removed (PreScission);;; chain copies: 6;1;1; label: 5' Cy5 on primer; fork 1:2 2:3, 2 nt ssDNA gap between primer end and fork
[6] = molecular target: EQgp4 (T7 helicase);WTgp5 (T7 DNA polymerase, exo-);thioredoxin (trx) (bacteriophage T7;bacteriophage …, UniProt P03692;P00581;P0AA25 1-566;1-704;1-109, E343Q|D5A;E7A|); test: EMSA; EQgp4 titrated onto DNA pre-bound to WTgp5-trx (60-100 nM); 20 mM Hepes pH 7.5, 1 mM EDTA, 100 mM KCl, 0.1 mM bME, 5% glycerol, 0.10 mg/mL BSA, 10 nM DNA, 25 C (30 min; 15 min + 15 min for supershift); conditions: protein: recombinant;recombinant;recombinant; tags: His tag removed (PreScission);;; chain copies: 6;1;1; label: 5' Cy5 on primer; fork 1:2 2:3, 2 nt ssDNA gap between primer end and fork
[7] = molecular target: T1, WAgp5;thioredoxin (trx); test: EMSA; 1 and 0 gap affinities similar; 20 mM Hepes pH 7.5, 1 mM EDTA, 100 mM KCl, 0.1 mM bME, 5% glycerol, 0.10 mg/mL BSA, 10 nM DNA, 25 C (30 min; 15 min + 15 min for supershift); conditions: protein: recombinant;recombinant, tags: ;, copies: 1;1, label: 5' Cy5 on primer

B1: Linear template-58nt (dsDNA)
DNA 1: GGATTATTTACATTGGCAGATTCACC
DNA 2: TTATTAGTTATGATATTCATGTATAGTTATATGGTGAATCTGCCAATGTAAATAATCC
Kd ([1]; primer-template, 26 bp duplex, 32 nt 5' template overhang): 53 nM | binding result [2]: binds

B2: Fork template 2gap (mixed)
DNA 1: GGATTATTTACATTGGCAGATTCACC
DNA 2: TTATTAGTTATGATATTCATGTATAGTTATATGGTGAATCTGCCAATGTAAATAATCC
DNA 3: TATTCATGTATAGTTATGTAGAGTTCCGAGATCCGCGCTGCCAGTCGGCAGAGCC
Kd [3]: 24 nM | Kd ([1]; fork 1:2 2:3, 2 nt ssDNA gap between primer end and fork): 36 nM | Kd [4]: 30 nM | binding result [5]: binds | Kd [6]: 8 nM

B3: Fork template 1gap (mixed)
DNA 1: GGATTATTTACATTGGCAGATTCACC
DNA 2: TTATTAGTTATGATATTCATGTATAGTTATATGGTGAATCTGCCAATGTAAATAATCC
DNA 3: TATTCATGTATAGTTATGTAGAGTCCGAGATCCGCGCTGCCAGTCGGCAGAGCC
Kd ([1]; fork 1:2 2:3, 1 nt ssDNA gap): 63 nM | binding result ([7]; fork 1:2 2:3, 1 nt ssDNA gap): binds

B4: Fork template 0gap (mixed)
DNA 1: GGATTATTTACATTGGCAGATTCACC
DNA 2: TTATTAGTTATGATATTCATGTATAGTTATATGGTGAATCTGCCAATGTAAATAATCC
DNA 3: TATTCATGTATAGTTATGTAGAGACCGAGATCCGCGCTGCCAGTCGGCAGAGCC
Kd ([1]; fork 1:2 2:3, no gap): 110 nM | binding result ([7]; fork 1:2 2:3, no gap): binds
